How the values were obtained:
BV2 microglia = test: Western blot of PI3K phosphorylation in BV2 microglia; format: cell-based, mouse
Method: For WB, mouse BV2 cell line was used in this study. It was purchased from ATCC (CRL-2469), and was cultured in DMEM (Thermo Fisher Scientific, Cat. No. 11885084) supplemented with 10% FBS at 37° C. with 5% C02. The medium was changed every 3 days. Cells were then seeded onto 6-well plates and stimulated with LPS (Sigma, Cat #L6529-1MG) for 6 hours and followed by IGFBPL1 (400 ng/ml, R&D system, 4130-BL) and/or IGF1 analog (10 uM, BACHEM, H-1356, Cat. No. 4018631) or NBI-31772 (10 μM, EMD Millipore, Cat. No. 479830). Cells were harvested 48 hrs for following western blotting.
WB was performed as previously noted^29. Cell or tissue samples were sonicated in a cold RIPA buffer supplemented with a 1:100 FAST protease inhibitor (S8830, Sigma-Aldrich, St Louis, MO, USA). […] The total Protein concentration of resulting supernatants was determined using the Qubit 4 Fluorometer (Thermo Fisher Scientific, Waltham, MA, USA). […] Signals were developed with ECL using a Super Signal West Pico kit (Thermo Fisher Scientific, Waltham, MA, USA) and detected with iBright CL 1500 (Thermo Fisher Scientific, Waltham, MA, USA). […] All the quantification results were averaged from three protein blots and expressed as the mean ratio of the values (target protein/housekeeping protein)±standard deviation (SD). […]

retinal microglia = test: Proteome profiler mouse cytokine array on supernatants of LPS-treated retinal microglial cultures; format: cell-based; details: IGFBPL1 400 ng/ml added 6 hr after LPS 1 μg/ml; total 48 hours
Method: Retinal microglia isolation started from dissecting retinas out from CX3CR1/GFP mice. The single cell suspension was obtained followed by papain digestion (20 units; Worthington, Lk003150). Tap every 3-5 mins until completely digested and then add equal volume of inhibitor to neutralize the reaction. Then the supernatants were removed by centrifuge at 300 g for 8 mins. Resuspend retinal cell pellets from CX3CR1/GFP mice into cell staining buffer (BioLegend, 420201) with pacific blue anti-mouse CD11b primary antibody (Biolegend, 101224). […]
As described above, microglial cells were sorted from CX3CR1/GFP mice as described above. […] The array membranes were imaged with iBright CL1500 imaging system (ThermoFisher Scientific, USA) and the results were analyzed using ImageJ software.
To investigate if IGFBPL1 directly mediates microglial function, we studied gene profiling changes in isolated microglial cultures treated by IGFBPL1. Retinal microglia were purified from mice expressing green fluorescence protein (GFP) driven under a microglial specific promoter Cx3cr1 (Cx3cr1-Gfp) using fluorescence-activated cell sorting (FACS)^12. […] This effects of IGFBPL1 on suppressing microglial activation were verified by cytokine arrays, which measured 36 mouse pro-inflammatory cytokines, chemokines from supernatants of microglial cultures. […]

B1: IGFBPL1: insulin-like growth factor binding protein like protein 1; recombinant protein (R&D system, 4130-BL) (protein)
chain: LGLRDAGRRHPECSPCQQDRCPAPSPCPAPWISARDECGCCARCLGAEGASCGGPVGSRCGPGLVCASRASGTAPEGTGLCVCAQRGAVCGSDGRSYSSICALRLRARHAPRAHHGHLHKARDGPCEFAPVVLMPPRDIHNVTGTQVFLSCEVKAVPTPVITWKKVKHSPEGTEGLEELPGDHVNIAVQVRGGPSDHETTSWILINPLRKEDEGVYHCHAANAIGEAQSHGTVTVLDLNRYKSLYSSVPGDLL
Increase in PI3K phosphorylation (BV2 microglia; IGFBPL1 added 6 hr after LPS challenge): 8 fold | PI3K signaling, individual treatment (BV2 microglia; IGFBPL1 alone, no LPS): did not alter PI3K signaling | Reversal of LPS-induced inflammatory cytokines (cytokine array, 36 cytokines/chemokines) (retinal microglia): completely reverted the LPS-induced inflammatory cytokines to the control levels

Source: patent US20250051458A1, “Methods for Treating Neurodegeneration Targeting IGF1/IGF1R” (The Schepens Eye Research Institute, Inc., priority 2021, published 2025)
